According to patent US20200270588A1, “GLUCOSYL TRANSFERASE POLYPEPTIDES AND METHODS OF USE” (Syngenta Participations AG, priority 2017, published 2020):
Residue numbers refer to the chain shown, from its start. Names may count otherwise.

B1: bx9 w/t: wild type Zea mays bx9 glucosyl transferase, C-terminally his-tagged SEQ ID NO: 1 (protein)
chain: MASSRTGAGAGGRVVVFPFPFQGHFNPVMRLARALHARGLAITVFHSGALDPADYPADYRFVPVTVEADPKLLASEDIAAIVTTLNASCDAPFRARLSALLAAEGRDSVRCVFTDVSWNAVLTASSDLGVPALGMMTASAASLRDYMAYRTLIDKGYLPVKEERKEDPVPELPPYLVKDLLRVDTSDLEEFAELLARTVTAARRASGLIFNTFPLIETDTLAEIHKALSVPVFAVAPLNKLVPTATASLHGVVQADRGCLQWLDTQQPGSVLYVSFGSMAAMDPHEFVELAWGLADSKRPFVWVVRPNLIRGFESGALPDGVEDEVRGRGIVVAWAPQEEVLAHPAVGGFLTHNGWNSTVEAISEGVPMVCCPRHGDQFGNMRYVCDVWKVGTELVGEQLERGQVKAAIDRLFGTKEGEEIKERMKEFKIAAAKGIGIGVDVDETASPRTDLTDLVDLIKSF
modifications: C-terminal His tag; Zea mays
B2: S117G, M279W, E339V: mutant combination of bx9 SEQ ID NO:1 (protein)
chain: B1 chain with S117G, M279W, E339V
modifications: Zea mays
B3: A432P, M279F: double mutant of bx9 SEQ ID NO:1 (protein)
chain: B1 chain with M279F, A432P
modifications: Zea mays
B4: S117I: bx9 SEQ ID NO:1 mutant (protein)
chain: B1 chain with S117I
modifications: Zea mays
B5: M279W, H375Y: mutant combination of bx9 SEQ ID NO:1 (protein)
chain: B1 chain with M279W, H375Y
modifications: Zea mays
B6: M279F, H375Y: mutant combination of bx9 SEQ ID NO:1 (protein)
chain: B1 chain with M279F, H375Y
modifications: Zea mays
B7: A334E: bx9 SEQ ID NO:1 mutant (protein)
chain: B1 chain with A334E
modifications: Zea mays
B8: S117G, M279W, E339A: mutant combination of bx9 SEQ ID NO:1 (protein)
chain: B1 chain with S117G, M279W, E339A
modifications: Zea mays
B9: S117G: bx9 SEQ ID NO:1 mutant (protein)
chain: B1 chain with S117G
modifications: Zea mays
B10: I81Y (protein)
chain: B1 chain with I81Y
modifications: Zea mays
B11: A432L: bx9 SEQ ID NO:1 mutant (protein)
chain: B1 chain with A432L
modifications: Zea mays
B12: L143F (protein)
chain: B1 chain with L143F
modifications: Zea mays
B13: I81L (protein)
chain: B1 chain with I81L
modifications: Zea mays
B14: L143W (protein)
chain: B1 chain with L143W
modifications: Zea mays
B15: I78Y: bx9 SEQ ID NO:1 mutant (protein)
chain: B1 chain with I78Y
modifications: Zea mays
B16: M279F, E339A, H375Y: mutant combination of bx9 SEQ ID NO:1 (protein)
chain: B1 chain with M279F, E339A, H375Y
modifications: Zea mays
B17: A334T: bx9 SEQ ID NO:1 mutant (protein)
chain: B1 chain with A334T
modifications: Zea mays
B18: M135V: bx9 SEQ ID NO:1 mutant (protein)
chain: B1 chain with M135V
modifications: Zea mays
B19: S117V: bx9 SEQ ID NO:1 mutant (protein)
chain: B1 chain with S117V
modifications: Zea mays
B20: M279W: bx9 SEQ ID NO:1 mutant (protein)
chain: B1 chain with M279W
modifications: Zea mays
B21: M136F (protein)
chain: B1 chain with M136F
modifications: Zea mays
B22: M279F, H375F: mutant combination of bx9 SEQ ID NO:1 (protein)
chain: B1 chain with M279F, H375F
modifications: Zea mays
B23: A334C: bx9 SEQ ID NO:1 mutant (protein)
chain: B1 chain with A334C
modifications: Zea mays

Assay: UDP luminescence plate assay of E. coli extracts, mutants of SEQ ID No: 1, 2 mM metribuzin
Type: biochemical, Zea mays
Settings: for luminescence signal with metribuzin: H24A null background 1.00E+05 not subtracted; for SIGNAL: metribuzin signal of mutant divided by the signal of w/t bx9: relative to bx9 w/t; for luminescence signal in the DMSO control: mutants of SEQ ID No: 1, DMSO in place of metribuzin (background UDP-glucose hydrolysis); for luminescence signal observed with 2 mM metribuzin: mutants of SEQ ID No: 1 in E. coli extracts, UDP luminescence; for RATIO of the metribuzin signal to the DMSO signal: 2 mM metribuzin vs DMSO control, same mutant
Method: Optionally plate assays are stopped with brief heating to 95 C before returning to ice and addition of UDP-Glo detection reagent followed by incubation at lab temperature. […] In addition a UDP standard curve is run alongside each set of plate tests.
Assays were carried out on extracts of E. coli BL21 DE3 expressing the various C-terminally his-tagged library variants of SEQ ID NO:1 at the amino acid positions listed in Table 11 as described in Example 2 except, in this case, with 2 mM metribuzin in place of herbicide V.
Thus the ratio of the metribuzin to DMSO signal as well as the increase in signal relative to the w/t bx9 is used to help distinguish those mutations most likely to offer the highest activity to metribuzin. A follow up assay monitored by, for example, LC MS is one method to distinguish these cases more quantitatively.

Molecule | SIGNAL: metribuzin signal of mutant divided by metribuzin signal of w/t bx9 (2 mM metribuzin) | luminescence signal with metribuzin (2 mM metribuzin) | SIGNAL: metribuzin signal of mutant divided by the signal of w/t bx9 (2 mM metribuzin) | luminescence signal in the DMSO control | luminescence signal observed with 2 mM metribuzin (2 mM metribuzin) | factor of increased signal relative to the bx9 w/t control signal (first parentheses) (2 mM metribuzin) | ratio of activity with metribuzin relative to activity with DMSO (second parentheses) (2 mM metribuzin) | further results
B1 | 1.00 | 1.23E+05 | 1.00 | 2.76E+05 | 2.80E+05 |  |  | UDP-Glo luminescence signal (2 mM metribuzin, 5 ul diluted extract, 40 minutes, DMSO control ~2.3E6, H24A ~1.7E6): ~3.4 E6
B2 |  |  |  |  |  | 7.5 | 5.0 | 
B3 | 1.68 | 2.08E+05 | 2.52 | 2.75E+05 | 7.06E+05 |  |  | 
B4 |  |  | 1.99 | 5.14E+05 | 5.56E+05 |  |  | 
B5 |  |  |  |  |  | 4.0 | 5.0 | 
B6 |  |  |  |  |  | 5.0 | 6.0 | 
B7 | 1.25 | 1.54E+05 |  |  |  |  |  | RATIO: metribuzin signal to DMSO signal (2 mM metribuzin): 0.96
B8 |  |  |  |  |  | 5.0 | 6.5 | 
B9 | 1.26 | 1.56E+05 | 1.07 | 2.41E+05 | 3.00E+05 |  |  | 
B10 |  |  | 0.90 | 2.25E+05 | 2.53E+05 |  |  | RATIO of the metribuzin signal to the DMSO signal: 1.12
B11 |  |  |  |  |  | 6 | 1.30 | 
B12 |  |  | 1.23 | 3.18E+05 | 3.45E+05 |  |  | RATIO of the metribuzin signal to the DMSO signal: 1.09
B13 |  |  | 0.67 | 1.68E+05 | 1.87E+05 |  |  | RATIO of the metribuzin signal to the DMSO signal: 1.11
B14 |  |  | 0.97 | 2.42E+05 | 2.72E+05 |  |  | RATIO of the metribuzin signal to the DMSO signal: 1.12
B15 |  |  | 1.23 | 3.27E+05 | 3.44E+05 |  |  | 
B16 |  |  |  |  |  | 7.5 | 7.0 | 
B17 | 1.25 | 1.54E+05 |  |  |  |  |  | RATIO: metribuzin signal to DMSO signal (2 mM metribuzin): 0.95
B18 | 1.18 | 1.46E+05 |  |  |  |  |  | RATIO: metribuzin signal to DMSO signal (2 mM metribuzin): 0.97
B19 |  |  | 1.18 | 3.38E+05 | 3.30E+05 |  |  | 
B20 | 1.14 | 1.41E+05 | 1.26 | 2.09E+05 | 3.51E+05 |  |  | 
B21 |  |  | 0.93 | 2.57E+05 | 2.59E+05 |  |  | RATIO of the metribuzin signal to the DMSO signal: 1.00
B22 |  |  |  |  |  | 5.0 | 4.0 | 
B23 | 1.13 | 1.39E+05 |  |  |  |  |  | RATIO: metribuzin signal to DMSO signal (2 mM metribuzin): 0.94
